Reference: US20200079833A1 (AstraZeneca / MedImmune, published 2020)
Starred links: 1 amine or outer side, 2 acyl side, 3 side chain; linkers in the order of their positions; H or OH if unused. Non-standard residues stand in square brackets, D forms with d. Groups on a side chain read outwards from the residue. No end group written: not given here. *: point of attachment. γGlu = O=C(O)[C@H](CCC(=O)[*:2])N[*:1]; Stearoyl = CCCCCCCCCCCCCCCCCC(=O)*; αMeF = C[C@](N)(Cc1ccccc1)C(=O)O; αMeK = C[C@](N)(CCCCN)C(=O)O; αMeS = C[C@](N)(CO)C(=O)O; Aib = CC(C)(N)C(=O)O; Ahx = NCCCCCC(=O)O

T1: glucose-dependent insulinotropic peptide (gastric inhibitory polypeptide) receptor (GIPR) (human, UniProt P48546 22-466)
T1 sequence (looked up): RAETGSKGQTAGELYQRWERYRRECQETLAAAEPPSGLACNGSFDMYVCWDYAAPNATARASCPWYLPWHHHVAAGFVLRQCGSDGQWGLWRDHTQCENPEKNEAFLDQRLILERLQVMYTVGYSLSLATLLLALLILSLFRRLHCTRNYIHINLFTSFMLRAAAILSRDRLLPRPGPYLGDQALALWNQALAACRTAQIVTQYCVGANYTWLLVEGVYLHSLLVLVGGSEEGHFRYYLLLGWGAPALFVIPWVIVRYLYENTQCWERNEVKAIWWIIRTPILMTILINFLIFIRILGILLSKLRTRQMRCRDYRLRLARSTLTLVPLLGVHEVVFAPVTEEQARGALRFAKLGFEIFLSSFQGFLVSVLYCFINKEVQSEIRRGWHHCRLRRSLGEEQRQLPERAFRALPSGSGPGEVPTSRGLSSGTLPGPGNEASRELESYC

B1: SEQ ID NO 149 (peptide)
peptide: H[Aib]EGS[αMeF]TSDV[αMeS]S[αMeF]LEGEAAK([Ahx-Stearoyl])E[αMeF]IA[αMeF]VV[αMeK]GG-NH2
modifications: N-terminus assumed
SMILES: CCCCCCCCCCCCCCCCCC(=O)NCCCCCC(=O)NCCCC[C@H](NC(=O)[C@H](C)NC(=O)[C@H](C)NC(=O)[C@H](CCC(=O)O)NC(=O)CNC(=O)[C@H](CCC(=O)O)NC(=O)[C@H](CC(C)C)NC(=O)[C@](C)(Cc1ccccc1)NC(=O)[C@H](CO)NC(=O)[C@](C)(CO)NC(=O)[C@@H](NC(=O)[C@H](CC(=O)O)NC(=O)[C@H](CO)NC(=O)[C@@H](NC(=O)[C@](C)(Cc1ccccc1)NC(=O)[C@H](CO)NC(=O)CNC(=O)[C@H](CCC(=O)O)NC(=O)C(C)(C)NC(=O)[C@@H](N)Cc1c[nH]cn1)[C@@H](C)O)C(C)C)C(=O)N[C@@H](CCC(=O)O)C(=O)N[C@@](C)(Cc1ccccc1)C(=O)N[C@H](C(=O)N[C@@H](C)C(=O)N[C@@](C)(Cc1ccccc1)C(=O)N[C@H](C(=O)N[C@H](C(=O)N[C@@](C)(CCCCN)C(=O)NCC(=O)NCC(N)=O)C(C)C)C(C)C)[C@@H](C)CC
B2: SEQ ID NO 146 (peptide)
peptide: H[Aib]EGS[αMeF]TSDV[αMeS]S[αMeF]LEGEAAK([γGlu-Stearoyl])E[αMeF]IA[αMeF]VV[αMeK]GG-NH2
modifications: N-terminus assumed
SMILES: CCCCCCCCCCCCCCCCCC(=O)N[C@@H](CCC(=O)NCCCC[C@H](NC(=O)[C@H](C)NC(=O)[C@H](C)NC(=O)[C@H](CCC(=O)O)NC(=O)CNC(=O)[C@H](CCC(=O)O)NC(=O)[C@H](CC(C)C)NC(=O)[C@](C)(Cc1ccccc1)NC(=O)[C@H](CO)NC(=O)[C@](C)(CO)NC(=O)[C@@H](NC(=O)[C@H](CC(=O)O)NC(=O)[C@H](CO)NC(=O)[C@@H](NC(=O)[C@](C)(Cc1ccccc1)NC(=O)[C@H](CO)NC(=O)CNC(=O)[C@H](CCC(=O)O)NC(=O)C(C)(C)NC(=O)[C@@H](N)Cc1c[nH]cn1)[C@@H](C)O)C(C)C)C(=O)N[C@@H](CCC(=O)O)C(=O)N[C@@](C)(Cc1ccccc1)C(=O)N[C@H](C(=O)N[C@@H](C)C(=O)N[C@@](C)(Cc1ccccc1)C(=O)N[C@H](C(=O)N[C@H](C(=O)N[C@@](C)(CCCCN)C(=O)NCC(=O)NCC(N)=O)C(C)C)C(C)C)[C@@H](C)CC)C(=O)O
B3: SEQ ID NO 147 (peptide)
peptide: H[Aib]EGS[αMeF]TSDV[αMeS]S[αMeF]LEGEAAK([γGlu-γGlu-Stearoyl])E[αMeF]IA[αMeF]VV[αMeK]GG-NH2
modifications: N-terminus assumed
SMILES: CCCCCCCCCCCCCCCCCC(=O)N[C@@H](CCC(=O)N[C@@H](CCC(=O)NCCCC[C@H](NC(=O)[C@H](C)NC(=O)[C@H](C)NC(=O)[C@H](CCC(=O)O)NC(=O)CNC(=O)[C@H](CCC(=O)O)NC(=O)[C@H](CC(C)C)NC(=O)[C@](C)(Cc1ccccc1)NC(=O)[C@H](CO)NC(=O)[C@](C)(CO)NC(=O)[C@@H](NC(=O)[C@H](CC(=O)O)NC(=O)[C@H](CO)NC(=O)[C@@H](NC(=O)[C@](C)(Cc1ccccc1)NC(=O)[C@H](CO)NC(=O)CNC(=O)[C@H](CCC(=O)O)NC(=O)C(C)(C)NC(=O)[C@@H](N)Cc1c[nH]cn1)[C@@H](C)O)C(C)C)C(=O)N[C@@H](CCC(=O)O)C(=O)N[C@@](C)(Cc1ccccc1)C(=O)N[C@H](C(=O)N[C@@H](C)C(=O)N[C@@](C)(Cc1ccccc1)C(=O)N[C@H](C(=O)N[C@H](C(=O)N[C@@](C)(CCCCN)C(=O)NCC(=O)NCC(N)=O)C(C)C)C(C)C)[C@@H](C)CC)C(=O)O)C(=O)O
B4: SEQ ID NO 148 (peptide)
peptide: H[Aib]EGS[αMeF]TSDV[αMeS]S[αMeF]LEGEAAK([γGlu-γGlu-γGlu-Stearoyl])E[αMeF]IA[αMeF]VV[αMeK]GG-NH2
modifications: N-terminus assumed
SMILES: CCCCCCCCCCCCCCCCCC(=O)N[C@@H](CCC(=O)N[C@@H](CCC(=O)N[C@@H](CCC(=O)NCCCC[C@H](NC(=O)[C@H](C)NC(=O)[C@H](C)NC(=O)[C@H](CCC(=O)O)NC(=O)CNC(=O)[C@H](CCC(=O)O)NC(=O)[C@H](CC(C)C)NC(=O)[C@](C)(Cc1ccccc1)NC(=O)[C@H](CO)NC(=O)[C@](C)(CO)NC(=O)[C@@H](NC(=O)[C@H](CC(=O)O)NC(=O)[C@H](CO)NC(=O)[C@@H](NC(=O)[C@](C)(Cc1ccccc1)NC(=O)[C@H](CO)NC(=O)CNC(=O)[C@H](CCC(=O)O)NC(=O)C(C)(C)NC(=O)[C@@H](N)Cc1c[nH]cn1)[C@@H](C)O)C(C)C)C(=O)N[C@@H](CCC(=O)O)C(=O)N[C@@](C)(Cc1ccccc1)C(=O)N[C@H](C(=O)N[C@@H](C)C(=O)N[C@@](C)(Cc1ccccc1)C(=O)N[C@H](C(=O)N[C@H](C(=O)N[C@@](C)(CCCCN)C(=O)NCC(=O)NCC(N)=O)C(C)C)C(C)C)[C@@H](C)CC)C(=O)O)C(=O)O)C(=O)O
B5: SEQ ID NO 150 (peptide)
peptide: H[Aib]EGS[αMeF]TSDV[αMeS]S[αMeF]LEGEAAK([Ahx-Ahx-Stearoyl])E[αMeF]IA[αMeF]VV[αMeK]GG-NH2
modifications: N-terminus assumed
SMILES: CCCCCCCCCCCCCCCCCC(=O)NCCCCCC(=O)NCCCCCC(=O)NCCCC[C@H](NC(=O)[C@H](C)NC(=O)[C@H](C)NC(=O)[C@H](CCC(=O)O)NC(=O)CNC(=O)[C@H](CCC(=O)O)NC(=O)[C@H](CC(C)C)NC(=O)[C@](C)(Cc1ccccc1)NC(=O)[C@H](CO)NC(=O)[C@](C)(CO)NC(=O)[C@@H](NC(=O)[C@H](CC(=O)O)NC(=O)[C@H](CO)NC(=O)[C@@H](NC(=O)[C@](C)(Cc1ccccc1)NC(=O)[C@H](CO)NC(=O)CNC(=O)[C@H](CCC(=O)O)NC(=O)C(C)(C)NC(=O)[C@@H](N)Cc1c[nH]cn1)[C@@H](C)O)C(C)C)C(=O)N[C@@H](CCC(=O)O)C(=O)N[C@@](C)(Cc1ccccc1)C(=O)N[C@H](C(=O)N[C@@H](C)C(=O)N[C@@](C)(Cc1ccccc1)C(=O)N[C@H](C(=O)N[C@H](C(=O)N[C@@](C)(CCCCN)C(=O)NCC(=O)NCC(N)=O)C(C)C)C(C)C)[C@@H](C)CC

Key:
Experiment in all cases: cell-based or functional assay
GLP-1 receptor (GLP-1R) = GLP-1 receptor (GLP-1R) (human, UniProt P43220 24-463)
glucagon receptor (GCGR) = glucagon receptor (GCGR) (human, UniProt P47871 26-477)
[1] = target: T1, glucose-dependent insulinotropic …

Sequence of glucagon receptor (GCGR) (P47871 26-477): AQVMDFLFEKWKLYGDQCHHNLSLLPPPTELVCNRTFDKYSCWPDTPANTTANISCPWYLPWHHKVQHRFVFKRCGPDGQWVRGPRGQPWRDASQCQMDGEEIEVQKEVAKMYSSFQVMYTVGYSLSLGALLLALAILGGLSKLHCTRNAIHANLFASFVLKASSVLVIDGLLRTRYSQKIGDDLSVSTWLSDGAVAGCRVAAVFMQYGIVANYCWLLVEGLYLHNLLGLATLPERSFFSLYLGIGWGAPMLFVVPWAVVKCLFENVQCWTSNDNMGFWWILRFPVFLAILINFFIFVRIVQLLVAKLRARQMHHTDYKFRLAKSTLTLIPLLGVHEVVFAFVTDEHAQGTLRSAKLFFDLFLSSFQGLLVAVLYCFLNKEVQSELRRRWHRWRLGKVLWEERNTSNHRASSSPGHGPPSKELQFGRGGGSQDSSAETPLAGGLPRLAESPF

Binder | cAMP Mean pM GLP-1R (GLP-1 receptor (GLP-1R)) [pM] | cAMP Primary assay EC50 GLP-1R n1 (GLP-1 receptor (GLP-1R)) [nM] | cAMP Primary assay EC50 GLP-1R n2 (GLP-1 receptor (GLP-1R)) [nM] | cAMP Primary assay EC50 Gluc-R (glucagon receptor (GCGR)) [nM] | cAMP Primary assay EC50 Gluc-R (2nd) (glucagon receptor (GCGR)) [nM] | cAMP Primary assay EC50 GIP-R [1] [nM] | cAMP Primary assay EC50 GIP-R (2nd) [1] [nM]
B1 | 66.2 | 0.081 | 0.051 | 28 | 28 | 28 | 28
B2 | 69 | 0.096 | 0.042 | 28 | 28 | 28 | 28
B3 | 23.2 | 0.032 | 0.014 | 27 | 27 | 27 | 27
B4 | 12.1 | 0.016 | 0.0087 | 26 | 26 | 26 | 26
B5 | 25.4 | 0.028 | 0.022 | 27 | 27 | 27 | 27
